Numbered stars: 1 amine (or outer) side, 2 acyl side, 3 side chain; on linkers, the order of the positions; unused ones are H or OH. Bridge positions count the residues as written; N and C are the ends. Side chains are listed from the residue outwards. Ends that are not written are not given here. * marks the point of attachment. C20 diacid = O=C(O)CCCCCCCCCCCCCCCCCCC(=O)*; γGlu = O=C(O)[C@H](CCC(=O)[*:2])N[*:1]; AEEA = NCCOCCOCC(=O)O
T1: human calcitonin receptor (human, UniProt P30988 25-474)
T1 construct: whole, on cells; Used as membranes prepared from a BHK tk'ts 13 cell line stably transfected with the human calcitonin receptor (Assay VII); also called hCTR; hCT
T1 sequence (looked up): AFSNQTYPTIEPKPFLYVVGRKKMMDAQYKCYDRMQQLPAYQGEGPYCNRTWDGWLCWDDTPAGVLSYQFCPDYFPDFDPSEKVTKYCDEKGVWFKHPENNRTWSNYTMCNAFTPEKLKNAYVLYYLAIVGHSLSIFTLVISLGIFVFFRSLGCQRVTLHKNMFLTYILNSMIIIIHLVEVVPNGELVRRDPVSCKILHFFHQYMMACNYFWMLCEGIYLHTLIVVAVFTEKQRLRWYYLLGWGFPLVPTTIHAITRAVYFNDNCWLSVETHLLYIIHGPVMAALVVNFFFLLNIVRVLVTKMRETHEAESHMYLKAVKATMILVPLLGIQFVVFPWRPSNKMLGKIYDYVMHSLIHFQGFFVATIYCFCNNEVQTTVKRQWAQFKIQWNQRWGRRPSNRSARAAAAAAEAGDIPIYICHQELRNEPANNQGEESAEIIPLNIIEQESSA

T2: rat calcitonin receptor (rat, UniProt P32214 25-516)
T2 construct: whole, on cells; Used as membranes prepared from BHK tk'ts 13 cells transiently transfected with the rat calcitonin receptor (Assay VIII); also called rCTR; rat calcitonin (a) receptor
T2 sequence (looked up): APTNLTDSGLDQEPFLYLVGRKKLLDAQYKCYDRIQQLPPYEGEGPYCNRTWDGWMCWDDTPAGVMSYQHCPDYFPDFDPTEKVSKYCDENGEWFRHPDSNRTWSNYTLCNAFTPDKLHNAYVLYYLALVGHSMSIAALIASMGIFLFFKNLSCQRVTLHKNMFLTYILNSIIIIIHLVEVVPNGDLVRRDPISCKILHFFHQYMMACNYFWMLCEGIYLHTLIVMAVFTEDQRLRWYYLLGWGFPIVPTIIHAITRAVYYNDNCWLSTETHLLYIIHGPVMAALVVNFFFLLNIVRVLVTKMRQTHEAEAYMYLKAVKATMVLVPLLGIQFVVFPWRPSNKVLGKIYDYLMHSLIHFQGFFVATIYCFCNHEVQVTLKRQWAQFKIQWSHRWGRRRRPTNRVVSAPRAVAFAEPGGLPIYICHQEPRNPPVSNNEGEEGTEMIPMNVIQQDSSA

T3: rat amylin receptor (rat calcitonin receptor + rat RAMP 3) (rat, UniProt P32214 25-516; Q9JJ73 23-147)
T3 construct: whole, on cells; Used as membranes prepared from BHK tk'ts 13 cells transiently transfected with rat calcitonin receptor and rat RAMP 3 (Assay VI); also called rAmylin-R; rat amylin 3(a) receptor
T3 sequence (looked up) 1: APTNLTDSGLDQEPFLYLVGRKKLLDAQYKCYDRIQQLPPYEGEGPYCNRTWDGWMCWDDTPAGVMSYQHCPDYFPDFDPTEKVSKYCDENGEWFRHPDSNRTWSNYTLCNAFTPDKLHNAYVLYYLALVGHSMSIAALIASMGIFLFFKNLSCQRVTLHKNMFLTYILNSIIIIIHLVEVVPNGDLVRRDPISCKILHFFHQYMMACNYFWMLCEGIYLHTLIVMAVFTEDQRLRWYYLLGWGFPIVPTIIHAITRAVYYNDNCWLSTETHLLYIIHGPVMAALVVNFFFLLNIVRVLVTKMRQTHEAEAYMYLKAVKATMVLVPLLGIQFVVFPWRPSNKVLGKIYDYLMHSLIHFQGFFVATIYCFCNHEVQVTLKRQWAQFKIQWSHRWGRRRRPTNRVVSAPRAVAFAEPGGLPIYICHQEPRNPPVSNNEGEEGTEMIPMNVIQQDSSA
T3 sequence (looked up) 2: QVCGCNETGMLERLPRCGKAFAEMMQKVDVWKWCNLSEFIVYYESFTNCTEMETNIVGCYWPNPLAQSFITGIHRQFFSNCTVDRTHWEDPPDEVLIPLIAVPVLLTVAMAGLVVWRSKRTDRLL


Assays:
[1] = molecular target: T1, human calcitonin receptor; assay: IC50 on human CTR divided by IC50 on human amylin receptor (Assays VII/V)
Protocol: The resulting pellet was resuspended, homogenized and centrifuged (20.000 rpm, 15 min) in a buffer containing 20 mM Na-HEPES and 0.1 mM EDTA (pH 7.4, buffer 2). The resulting pellet was resuspended in buffer 2 and protein concentration was measured (BCA protein Assay, Pierce). The homogenate was kept cold during the whole procedure. The membranes were kept at −80° C. until use. The assay was performed in a 384 well Optiplate (PerkinElmer) in a total volume of 40 ul. Membranes were mixed with SPA beads. Final concentration of membranes 35 ng/μL final and SPA beads was 0.05 mg/well. Test-compounds were dissolved in DMSO and further diluted in assay buffer (50 mM Hepes, pH 7.4, 1 mM CaCl2, 5 mM MgCl₂, 0.1% OA and 0.02% Tween20). […] The final mixture was incubated with shaking at 400 rpm for 120 min at 25° C. prior to centrifugation (1500 rpm, 10 min). Samples were analyzed on TopCounter™ (Packard). The IC₅₀ was calculated using (one site binding competition analysis) GraphPad Prism5 as a measure of receptor affinity.
Membranes were prepared in the following way; the cells were rinsed with PBS and incubated with Versene for approximately 5 min before harvesting. The cells were flushed with PBS and the cell-suspension was centrifuged for 5 min at 1000 rpm. Cells were homogenized (Ultrathurrax) in a buffer containing 20 mM Na-HEPES and 10 mM EDTA (pH 7.4) and centrifuged at 20.000 rpm for 15 min. The resulting pellet was resuspended, homogenized and centrifuged (20.000 rpm, 15 min) in a buffer containing 20 mM Na-HEPES and 0.1 mM EDTA (pH 7.4, buffer 2). The resulting pellet was resuspended in buffer 2 and protein concentration was measured (BCA protein Assay, Pierce). The homogenate was kept cold during the whole procedure. The membranes were kept at −80° C. until use. Assay was performed in a 384 well Optiplate (PerkinElmer) in a total volume of 40 ul. Membranes were mixed with SPA beads.

[2] = molecular target: T2, rat calcitonin receptor; assay: IC50 on rat CTR divided by IC50 on rat amylin receptor (Assays VIII/VI)
[3] = molecular target: T2, rat calcitonin receptor; assay: SPA competition with 125I-calcitonin, membranes of BHK cells with rat CTR (Assay VIII)
[4] = molecular target: T3, rat amylin receptor (rat calcitonin …); assay: SPA competition with 125I-rat amylin, membranes of BHK cells with rat CTR + rat RAMP3 (Assay VI)
Protocol: The binding assay was performed using scintillation proximity assay (SPA) beads (RPNQ0001) from PerkinElmer and cell membranes from the Amylin 3(a)/CRE-luc cells (as described in Assay (II)) were used. Membranes were prepared in the following way; the cells were rinsed with PBS and incubated with Versene for approximately 5 min before harvesting. The cells were flushed with PBS and the cell-suspension was centrifuged for 5 min at 1000 rpm. Cells were homogenized (ultrathurrax) in a buffer containing 20 mM Na-HEPES and 10 mM EDTA (pH 7.4) and centrifuged at 20.000 rpm for 15 min. The resulting pellet was resuspended, homogenized and centrifuged (20.000 rpm, 15 min) in a buffer containing 20 mM Na-HEPES and 0.1 mM EDTA (pH 7.4, buffer 2). The resulting pellet was resuspended in buffer 2 and protein concentration was measured (BCA protein Assay, Pierce). The homogenate was kept cold during the whole procedure. The membranes were kept at −80° C. until use. The assay was performed in a 384 well Optiplate (PerkinElmer) in a total volume of 40 ul. Membranes were mixed with SPA beads. Final concentration of membranes 35 ng/μL final and SPA beads was 0.05 mg/well. Test-compounds were dissolved in DMSO and further diluted in assay buffer (50 mM Hepes, pH 7.4, 1 mM CaCl2, 5 mM MgCl₂, 0.1% OA and 0.02% Tween20). […] The final mixture was incubated with shaking at 400 rpm for 120 min at 25° C. prior to centrifugation (1500 rpm, 10 min). Samples were analyzed on TopCounter™ (Packard). The IC₅₀ was calculated using (one site binding competition analysis) GraphPad Prism5 as a measure of receptor affinity.
Cells were grown in DMEM with 10% FBS and 1% Pen/Strep. Approximately 48 hours after transfection, the cells were harvested and membranes were prepared.

| Ratio hCT/hAmylin binding [1] | Ratio rCT/rAmylin binding [2] | IC50 [3] [nM] | IC50 [4] [nM] | Binder |
| --- | --- | --- | --- | --- |
| 140 | 87 | 143 | 1.64 | K([AEEA-γGlu-C20 diacid])CNTATCATQRLARFLRHSSPNFGAIPSSTNVGSNTY-NH2 (disulfide 2-7; N-terminus assumed; SMILES CC[C@H](C)[C@H](NC(=O)[C@H](C)NC(=O)CNC(=O)[C@H](Cc1ccccc1)NC(=O)[C@H](CC(N)=O)NC(=O)[C@@H]1CCCN1C(=O)[C@H](CO)NC(=O)[C@H](CO)NC(=O)[C@H](Cc1c[nH]cn1)NC(=O)[C@H](CCCNC(=N)N)NC(=O)[C@H](CC(C)C)NC(=O)[C@H](Cc1ccccc1)NC(=O)[C@H](CCCNC(=N)N)NC(=O)[C@H](C)NC(=O)[C@H](CC(C)C)NC(=O)[C@H](CCCNC(=N)N)NC(=O)[C@H](CCC(N)=O)NC(=O)[C@@H](NC(=O)[C@H](C)NC(=O)[C@@H]1CSSC[C@H](NC(=O)[C@@H](N)CCCCNC(=O)COCCOCCNC(=O)CC[C@H](NC(=O)CCCCCCCCCCCCCCCCCCC(=O)O)C(=O)O)C(=O)N[C@@H](CC(N)=O)C(=O)N[C@@H]([C@@H](C)O)C(=O)N[C@@H](C)C(=O)N[C@@H]([C@@H](C)O)C(=O)N1)[C@@H](C)O)C(=O)N1CCC[C@H]1C(=O)N[C@@H](CO)C(=O)N[C@@H](CO)C(=O)N[C@H](C(=O)N[C@@H](CC(N)=O)C(=O)N[C@H](C(=O)NCC(=O)N[C@@H](CO)C(=O)N[C@@H](CC(N)=O)C(=O)N[C@H](C(=O)N[C@@H](Cc1ccc(O)cc1)C(N)=O)[C@@H](C)O)C(C)C)[C@@H](C)O, Analogue of human amylin; also called compound 82) |
| 60.7 | 69.9 | 90.6 | 1.3 | K([AEEA-γGlu-C20 diacid])CNTATCATQRLANFLRHSSPNFGAIPSSTNVGRNTY-NH2 (disulfide 2-7; N-terminus assumed; SMILES CC[C@H](C)[C@H](NC(=O)[C@H](C)NC(=O)CNC(=O)[C@H](Cc1ccccc1)NC(=O)[C@H](CC(N)=O)NC(=O)[C@@H]1CCCN1C(=O)[C@H](CO)NC(=O)[C@H](CO)NC(=O)[C@H](Cc1c[nH]cn1)NC(=O)[C@H](CCCNC(=N)N)NC(=O)[C@H](CC(C)C)NC(=O)[C@H](Cc1ccccc1)NC(=O)[C@H](CC(N)=O)NC(=O)[C@H](C)NC(=O)[C@H](CC(C)C)NC(=O)[C@H](CCCNC(=N)N)NC(=O)[C@H](CCC(N)=O)NC(=O)[C@@H](NC(=O)[C@H](C)NC(=O)[C@@H]1CSSC[C@H](NC(=O)[C@@H](N)CCCCNC(=O)COCCOCCNC(=O)CC[C@H](NC(=O)CCCCCCCCCCCCCCCCCCC(=O)O)C(=O)O)C(=O)N[C@@H](CC(N)=O)C(=O)N[C@@H]([C@@H](C)O)C(=O)N[C@@H](C)C(=O)N[C@@H]([C@@H](C)O)C(=O)N1)[C@@H](C)O)C(=O)N1CCC[C@H]1C(=O)N[C@@H](CO)C(=O)N[C@@H](CO)C(=O)N[C@H](C(=O)N[C@@H](CC(N)=O)C(=O)N[C@H](C(=O)NCC(=O)N[C@@H](CCCNC(=N)N)C(=O)N[C@@H](CC(N)=O)C(=O)N[C@H](C(=O)N[C@@H](Cc1ccc(O)cc1)C(N)=O)[C@@H](C)O)C(C)C)[C@@H](C)O, Analogue of human amylin; also called compound 78) |

From patent publication US20140087995A1 (published 2014)
